The record followed here is the supplement of paper PMC12042874.

± gives the uncertainty stated by the source.

This series in a line: amyloid nucleation score (Sup35N fusion, yeast selection) (log enrichment); library NNK2; higher = more nucleation; inactive = no reads after selection. A digest of the protocol: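 Psi-negative yeast expressed Sup35N fused to peptides of 20 random codons. They were induced 24 hours with 100 μM copper sulfate, grown 7 days at 30°C without adenine and uracil, and their plasmid inserts from input and output were Illumina-sequenced. The nucleation score is the DiMSum log enrichment of output over input reads, centred on the mode score of non-aggregating sequences. Sequences with under 100 input reads were excluded.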
VNFFNLINRRGTPNRWFYAS registered an amyloid nucleation score of 0.201 ± 1.
The same measure for VNKILQEYMACRRNLQTQMW: -0.215 ± 0.3; for VNLFVLDSRTNGVCFWELMT: -0.452 ± 0.55; for VNLGSGAVEPTTLRKFGLTR: 4.28 ± 0.06.
Then VNLITGIMYI, with “inactive”.
Then VNLSCPVMNRTSMMCVVYLH, with 7.799 ± 0.052; and VNLSDDCELVYRSCEVLLNY, with -1.34 ± 1.1; and VNLVYSYFNISGWIEFSSLC, with 2.98 ± 0.053.
In turn, VNMFSFHYFHSVMRFLFYRW registered an amyloid nucleation score of -0.751 ± 0.41.
Then VNNNLLNASLAMVSM, with “inactive”; and VNSEISDYLHDGDGSRVRSI, with -0.025 ± 0.79.
The same measure for VNSFIDDSCLGMANPLPYWS: -1.03 ± 1; for VNSSFLLGFCLRIMNHV: “inactive”.
Then VNSVMARMITCTSVVGCKYW, with -0.259 ± 0.19; and VNVPYIRMIDHLLTYTQL, with -0.081 ± 1.1.
For VNWLFACVELR, the amyloid nucleation score turned out to be 0.365 ± 0.36.
The same measure for VNYFVRGTVSK: 0.074 ± 0.74; for VPFGNESWLYTR: -1.06 ± 0.64.
VPFYVFSVIGMIYMHGWVEW displayed an amyloid nucleation score of -0.748 ± 0.56.
Then VPISHLNCYFFW, with 8.686 ± 0.084; and VPLHDARTRM, with 0.637 ± 0.24; and VPQLSLQLVQRIFGFPSVIL, with -0.288 ± 0.41.
Turning to VPRLILSIYFIICLTTQEAV, the amyloid nucleation score is -0.24 ± 0.65.
In turn, VPSRGLF returned an amyloid nucleation score of 0.815 ± 0.4.
Then VPSRS, with 0.172 ± 0.65.
The same measure for VPSSNFVWVFLRLKS: -0.996 ± 0.49; for VPYGRAGFVTTYAVCCYNCK: -0.47 ± 1.1; for VPYSICSKSSRESCRYVWYG: 3.79 ± 0.053.
The substance VQICLGNPNWGNPANRSFVV registered an amyloid nucleation score of 1.95 ± 0.2.
As for VQLWYILITKMVR, the amyloid nucleation score is -1.02 ± 1.
The same measure for VQYLVDCMYWVQGMAVSE: 0.475 ± 0.46.
The same measure for VRARYASLCHGIAAEGIVGV: 0.506 ± 0.28; for VRGSNV: -0.637 ± 0.33; for VRKSFLCCKQMGLLF: -1.14 ± 0.64.
Substance VRLFTVGWRSGKNVGNTSDA returned an amyloid nucleation score of -0.263 ± 1.1.
Substance VRLLLYWVAVRWRETDCCCS had an amyloid nucleation score of 0.315 ± 0.48.
Then VRMMCLQGATTGATNSPSNR, with -0.526 ± 0.37; and VRNGWCTSWNSTAN, with 0.974 ± 0.52.
The same measure for VRPCRP: 1.49 ± 0.55; for VRRCIVRI: 0.267 ± 0.4.
The same measure for VRSLKTHRFPFLCERSKFMG: -0.987 ± 0.38.
Substance VRWIKVFHFP displayed an amyloid nucleation score of -0.784 ± 0.76.
Regarding VSAKNIMSSAAER, the amyloid nucleation score came out at 0.451 ± 0.35.
As for VSCLTAPILSMENPSEEYVG, the amyloid nucleation score was 1.55 ± 0.35.
Then VSDLKVAQNCANKVIKLRYR, with 5.01 ± 0.072; and VSDLRRMKDGC, with “inactive”.
The same measure for VSFRHQCWNACNSDSVGEEI: 0.892 ± 0.48.
For VSIRDVVGQYSINRVICRSY, the amyloid nucleation score was -0.774 ± 0.54.
Then VSITISTTCSNKGS, with 1.29 ± 0.22.
The same measure for VSLLCIFVAYGNWVMNGDDP: -0.136 ± 0.62.
The same measure for VSLMFSGVIWAIWLMLFGVG: 1.13 ± 0.61; for VSLWLYISMQCTRLSRRDQG: 0.22 ± 0.65; for VSMSRGL: “inactive”.
With VSPLALDQVTVSMVAMGIEG, the amyloid nucleation score worked out at 0.999 ± 0.29.
The same measure for VSRSSKMMFFVDHLRYC: 1.55 ± 0.58; for VSSVRCNRVAYNPASGRGRR: -0.124 ± 0.55.
The same measure for VSSWGMYYWFS: 0.06 ± 0.44; for VSVLI: 0.45 ± 0.44; for VSYFPYRDVLGTINNV: 0.729 ± 0.54.
The same measure for VTDWACGMILIYVLRKILVM: 0.461 ± 0.47; for VTGNKEVMKIRCWVAHEESY: 0.436 ± 0.49.
VTGYGSLYYGVKTRG registered an amyloid nucleation score of -0.295 ± 0.55.
VTIEFATHLWGVMY yielded an amyloid nucleation score of 4.78 ± 0.072.
Then VTTSTLMYWRGRTGALLAPS, with 1.84 ± 0.22; and VVCLPVISLCWIFLHIIF, with “inactive”.
The same measure for VVDCMCSGLHWVQVGILSQP: 1.19 ± 0.39; for VVEICFYW: 6.258 ± 0.034; for VVFFNGACALATLAAVSLGP: 6 ± 0.062.
Then VVGPFHFIVMMKVSKVRVKL, with 6.212 ± 0.039.
The substance VVIFCVVFWV had an amyloid nucleation score of 0.129 ± 0.76.
The same measure for VVLTHY: 0.386 ± 0.34; for VVMLVRT: 3.87 ± 0.064; for VVNLIVKDDPWEGWLKSLVW: 2.46 ± 0.18.
Then VVRLSSYNASTPLSVSFRRG, with -0.171 ± 0.74; and VVRVCRQGCLSNLSWCGWGE, with -0.1 ± 1; and VVSKDDRDGNV, with 3.14 ± 0.044.
The same measure for VVSYFCCLDCSLNAYS: 9.384 ± 0.043; for VVTNCAALVNWRFFYLCNSY: 3.93 ± 0.054.
In turn, VVVSVCSPLK yielded an amyloid nucleation score of 0.258 ± 0.46.
VVYFFFCLDMVMTGF gave an amyloid nucleation score of 4.65 ± 0.087.
The same measure for VWIGAAGGDFDSCRG: 1.29 ± 0.43.
The same measure for VWQVGQQRY: 0.899 ± 0.17; for VWSNLSVRLRHI: -0.196 ± 1.
The substance VWSSMSFTSLFVIISLSNYS displayed an amyloid nucleation score of 2.88 ± 0.13.
The same measure for VWTCIVFSR: 6.22 ± 0.074.
The same measure for VWTIPRS: 0.012 ± 0.5.
The same measure for VWVVCEFLAVVPKTKIFRTD: 0.721 ± 0.66.
For the substance VWWGSMHAVC, the amyloid nucleation score was found to be 0.652 ± 0.31.
Then VYAFLYFWGFRHGVVYV, with -0.099 ± 0.44.
Then VYCHRLNIILIGRVFCSEDI, with 0.062 ± 0.55; and VYCLSVMSARSQFCVWGWML, with 0.165 ± 1; and VYENKIA, with 0.313 ± 0.47.
The substance VYIFQGMR displayed an amyloid nucleation score of -0.302 ± 0.46.
VYIWSCCVKSFESSTFDDDN had an amyloid nucleation score of 7.972 ± 0.074.
Then VYLKIAGTVIDRFTAHVLLM, with -1.43 ± 0.75.
VYLVKAGLYSRMNQLLPLCS showed an amyloid nucleation score of 0.607 ± 0.34.
Then VYMKFMGMMQHFIKLKSRDL, with “inactive”.
The same measure for VYRFSAAARLDWIDRVNLCN: 0.868 ± 0.58; for VYRLTRVISEWRSILVLVWT: 0.328 ± 0.42; for VYSLFSYLRDTLVV: -0.534 ± 0.74.
As to VYTHSGIVY, the amyloid nucleation score is -0.82 ± 0.62.
The same measure for VYTSYGSRSFTFNRFNAWTD: -0.97 ± 0.78; for VYWWVANV: 1.99 ± 0.26; for VYYWHEYFIDWY: -1.27 ± 1.1.
Substance WAATITDRYRCL returned an amyloid nucleation score of 0.35 ± 0.35.
Then WAEPYFRCDGSSRIFSQGNA, with “inactive”.
Then WALLGFLDYKLFLTAEVFSA, with -0.498 ± 1.1.
The substance WAQSNISETSYHVGSLLSVA registered an amyloid nucleation score of 0.016 ± 0.32.
The substance WAWIHSADLNYNCVMRGCLP gave an amyloid nucleation score of 2.16 ± 0.14.
Then WCGLISASYTLIHSNRFMKL, with -1.04 ± 1.1; and WCVMLGLGSQGSRILRVLRM, with 0.29 ± 0.29; and WDIRVVVSVRCNMQVYLFVC, with 0.581 ± 0.51.
The same measure for WDSFLRLDFSMLSVLRREPR: 2.98 ± 0.18.
Then WDSSPGISVVSIRLEQ, with 5.431 ± 0.036.
In turn, WDSVRSWKPFPHTSNKWFIL registered an amyloid nucleation score of -0.679 ± 0.48.
Consider WDVKRIRKVSFDFVSRGWKG, for which the amyloid nucleation score is -0.293 ± 0.32.
The same measure for WEDGTFEV: -0.219 ± 0.61.
The same measure for WEGLSGTSLVLSQCFAPFSS: 2.17 ± 0.12; for WESCWIHLFHLSIHLTTNFY: 2.08 ± 0.088; for WESLVETSSTLFLRECYNVF: -1.86 ± 0.53.
The same measure for WFACSLVAYRVLSSGTKAVM: 0.204 ± 0.34; for WFFTSS: -0.526 ± 0.76.
Substance WFLCWYSTPTLGCCKKEGSA yielded an amyloid nucleation score of 0.056 ± 0.33.
Then WFMFDFFYF, with “inactive”; and WFTAVVLNS, with 0.333 ± 0.25; and WFVGFSMAYWNERDAGRPGM, with 1.8 ± 0.15.
Then WFVTNGCFYSLCLTHG, with 5.996 ± 0.028; and WGCHRLEATVLLCVRVCIDC, with -0.263 ± 1.1; and WGESHWVASFFKFVRGSWDG, with -0.112 ± 0.54.
Then WGHANFAEVWNDP, with 0.385 ± 0.6.
On to WGHRVDCIFKSNLSA, for which the amyloid nucleation score is -0.878 ± 0.31.
Take WGNHSYLTVYRFFIRNWDVI: the amyloid nucleation score was -0.81 ± 0.55.
In turn, WHNDSTG showed an amyloid nucleation score of 0.619 ± 0.22.
Then WHQLKSTPLHFYSINTASFN, with 0.123 ± 0.6; and WHSVHYNLFCCF, with 8.689 ± 0.041.
Regarding WIIHMSSEAYYPSSFGRIVI, the amyloid nucleation score is -0.872 ± 1.1.
Then WIMVI, with -0.124 ± 0.26; and WIQKPGLFASNGATATGGHV, with 0.395 ± 0.56; and WITVVRLIYLAFFQTGST, with -0.867 ± 0.63.
Then WKLAHISLDFHFLYSR, with -0.269 ± 0.61; and WKVSLGWNSHMCAGMETLWM, with 4.18 ± 0.048.
